Legend:
[1] = target: C. albicans HSP90 (without fluorescent protein) (C. albicans) (UniProt P46598)
[2] = target: C. albicans HSP90 (without fluorescent protein) (C. albicans) (UniProt P46598); remark: listed apart in the source

C. albicans Aha1 (from UniProt A0A1D8PU72 1-346) (natural protein)
HSP90 ATPase activity (ADP-Glo), 2.5 µM HSP90 with 1-20 µM Aha1, 1 mM ATP, 1 h at 30 °C; fold of HSP90 alone [1]: 7 fold | HSP90 ATPase activity (ADP-Glo), 2.5 µM HSP90 with Aha1 (20 µM) and Sba1 (20 µM) together, 1 mM ATP; fold of HSP90 alone [2]: 1.9 fold
